Data: patent US9587033

B1: full length Tnk1 (72 kDa) (protein)
chain: MLPEAGSLWLLKLLRDIQLAQFYWPILEELNVTRPEHFDFVKPEDLDGIGMGRPAQRRLSEALKRLRSGPKSKNWVYKILGGFAPEHKEPTLPSDSPRHLPEPEGGLKCLIPEGAVCRGELLGSGCFGVVHRGLWTLPSGKSVPVAVKSLRVGPEGPMGTELGDFLREVSVMMNLEHPHVLRLHGLVLGQPLQMVMELAPLGSLHARLTAPAPTPPLLVALLCLFLRQLAGAMAYLGARGLVHRDLATRNLLLASPRTIKVADFGLVRPLGGARGRYVMGGPRPIPYAWCAPESLRHGAFSSASDVWMFGVTLWEMFSGGEEPWAGVPPYLILQRLEDRARLPRPPLCSRALYSLALRCWAPHPADRPSFSHLEGLLQEAGPSEACCVRDVTEPGALRMETGDPITVIEGSSSFHSPDSTIWKGQNGRTFKVGSFPASAVTLADAGGLPATRPVHRGTPARGDQHPGSIDGDRKKANLWDAPPARGQRRNMPLERMKGISRSLESVLSLGPRPTGGGSSPPEIRQARAVPQGPPGLPPRPPLSSSSPQPSQPSRERLPWPKRKPPHNHPMGMPGARKAAALSGGLLSDPELQRKIMEVELSVHGVTHQECQTALGATGGDVVSAIRNLKVDQLFHLSSRSRADCWRILEHYQWDLSAASRYVLARP

Columns and labels:
Grb2 = Grb2 (UniProt P62993)

Grb2, P62993, sequence (P62993 whole entry, looked up): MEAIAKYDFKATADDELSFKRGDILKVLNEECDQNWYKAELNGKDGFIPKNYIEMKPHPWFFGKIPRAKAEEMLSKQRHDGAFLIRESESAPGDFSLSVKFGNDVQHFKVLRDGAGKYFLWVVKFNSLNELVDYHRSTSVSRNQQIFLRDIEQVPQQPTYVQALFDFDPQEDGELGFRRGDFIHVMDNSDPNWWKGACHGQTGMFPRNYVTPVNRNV

| Molecule | in vitro PTK activity assay (Y-phosphorylation of Grb2) (Grb2) | in vitro PTK activity assay (Y-phosphorylation of Grb2) (Grb2, P62993) |
| --- | --- | --- |
| 60 kDa truncated Tnk1-C17ORF61 fusion protein (tTnk1) | The t-Tnk1 showed none or weak Y-phosphorylation of Grb2 | – |
| B1 | – | Tnk1 from T47D or K562 Y-phosphorylated Grb2 |
